The values below come from patent publication US20140178332A1 (published 2014).

As usually defined, the Kd is the equilibrium constant for the complex coming apart. Usually koff stands for the rate constant with which the complex falls apart. In general, kon refers to a measure of how fast the partners come together. What is called IC50 is the concentration that gives 50% inhibition.

The chains are these.
T1: recombinant purified human IL-12 p70 (human, UniProt P29459 23-219)
T1 construct: Disulfide-linked heterodimer of p35 and p40; also called hIL-12; Hu IL-12
T1 sequence 1: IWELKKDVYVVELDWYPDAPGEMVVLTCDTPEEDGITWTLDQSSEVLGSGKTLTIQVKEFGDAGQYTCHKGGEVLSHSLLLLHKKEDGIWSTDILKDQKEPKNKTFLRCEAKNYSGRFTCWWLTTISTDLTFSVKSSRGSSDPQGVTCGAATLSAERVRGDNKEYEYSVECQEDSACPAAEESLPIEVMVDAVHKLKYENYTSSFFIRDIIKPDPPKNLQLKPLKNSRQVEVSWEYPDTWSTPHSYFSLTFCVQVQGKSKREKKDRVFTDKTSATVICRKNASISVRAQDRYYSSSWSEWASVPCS
T1 sequence 2: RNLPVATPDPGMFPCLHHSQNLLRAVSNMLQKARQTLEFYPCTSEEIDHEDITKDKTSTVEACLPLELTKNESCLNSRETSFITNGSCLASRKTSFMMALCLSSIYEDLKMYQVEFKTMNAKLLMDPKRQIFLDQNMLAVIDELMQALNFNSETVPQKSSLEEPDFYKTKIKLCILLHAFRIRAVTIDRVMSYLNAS

B1: additional humanized anti-IL-12 antibody 1A6.10 (antibody, human IgG1, V domains shown)
VH: EVTLRESGPGLVKPTQTLTLTCTLYGFSLSTSGMGVSWIRQPPGKGLEWLAHIWWDGDNYYNPSLKSQLTISKDTSKNQVVLKLTSVDPVDTATYYCARRTRVNYAMDYWGQGTLVTVSS
VL: DIQMTQSPSSLSASVGDRVTITCKASQSVSNDVAWYQQKPGKAPKLLIYYASNRYTGVPDRFSGSGYGTDFTFTISSLQPEDIATYYCQQDYNSPWTFGGGTKVEIKR
notes: Only variable domains tied to it
B2: additional humanized anti-IL-12 antibody 1A6.12 (antibody, human IgG1, V domains shown)
VH: B1 VH
VL: B1 VL with Y36F
notes: as for B1
B3: additional humanized anti-IL-12 antibody 8E1.4 (antibody, IgG1, V domains shown)
VH: EVQLVESGGGLVQPGGSLRLSCAASGFTFSDYGMVWVRQAPGKGLEWVASISSGSSNIYYADTVKGRFTISRDNAKNTLYLQMNSLRAEDTAVYYCARNPYWGQGTLVTVSS
VL: DIQMTQSPSSLSASVGDRVTITCKASQNVGTNVAWYQQKPGKAPKGLIYSASHRYSGVPSRFSGSGSGTDFTLTISSLQPEDFATYYCQQYNSYPLTFGGGTKVEIKR
notes: IgG1/kappa
B4: additional humanized anti-IL-12 antibody 8E1.6 (antibody, V domains shown)
VH: B3 VH with N74D
VL: B3 VL
notes: IgG1/kappa, expressed in 293T/17 cells from pVg1.D.Tt (D356E L358M, L234A L235A) and pVk
B5: additional humanized anti-IL-12 antibody 8E1.5 (antibody, IgG1, V domains shown)
VH: B3 VH
VL: B3 VL with S60D
notes: IgG1/kappa

Substitutions are numbered along the chain they refer to. Names may count otherwise.

In the first assay the target is T1, recombinant purified human IL-12 p70. As to the kind of experiment: SPR (Biacore) according to Example 1.1.B. How it is done: The BIACORE assay (Biacore, Inc, Piscataway, N.J.) determines the affinity of antibodies with kinetic measurements of on-, off-rate constants. Binding of antibodies to recombinant purified human IL-12 p70 or recombinant purified human IL-12 p40 were determined by surface plasmon resonance-based measurements with a Biacore® 3000 instrument (Biacore® AB, Uppsala, Sweden) using running HBS-EP (10 mM HEPES [pH 7.4], 150 mM NaCl, 3 mM EDTA, and 0.005% surfactant P20) at 25° C. All chemicals were obtained from Biacore® AB (Uppsala, Sweden) or otherwise from a different source as described in the text. Approximately 5000 RU of goat anti-mouse IgG, (Fcγ), fragment specific polyclonal antibody (Pierce Biotechnology Inc, Rockford, Ill.) diluted in 10 mM sodium acetate (pH 4.5) was directly immobilized across a CM5 research grade biosensor chip using a standard amine coupling kit according to manufacturer's instructions and procedures at 25 μg/ml. Unreacted moieties on the biosensor surface were blocked with ethanolamine. Modified carboxymethyl dextran surface in flowcell 2 and 4 was used as a reaction surface. Unmodified carboxymethyl dextran without goat anti-mouse IgG in flow cell 1 and 3 was used as the reference surface. For kinetic analysis, rate equations derived from the 1:1 Langmuir binding model were fitted simultaneously to association and dissociation phases of all eight injections (using global fit analysis) with the use of Biaevaluation 4.0.1 software. Purified antibodies were diluted in HEPES-buffered saline for capture across goat anti-mouse IgG specific reaction surfaces. Mouse antibodies to be captured as a ligand (25 μg/ml) were injected over reaction matrices at a flow rate of 5 μl/min. The association and dissociation rate constants, kₒₙ (unit M⁻¹ s⁻¹) and koff (unit s⁻¹) were determined under a continuous flow rate of 25 μl/min. Rate constants were derived by making kinetic binding measurements at ten different antigen concentrations ranging from 10-200 nM. The equilibrium dissociation constant (unit M) of the reaction between mouse antibodies and recombinant purified human IL-12 p70 or recombinant purified human IL-12 p40 was then calculated from the kinetic rate constants by the following formula: KD=koff/kₒₙ. Binding is recorded as a function of time and kinetic rate constants are calculated.
A general note: Surface plasmon resonance follows binding to a sensor surface in real time, without labels.
As for B1, the Kd worked out at 0.024 nM, the koff was found to be 7.6e-06 s⁻¹ and the kon turned out to be 320000 M⁻¹ s⁻¹.
On to B2, for which the Kd came to 0.4 nM, the off-rate constant (koff) was 0.0003 s⁻¹ and the on-rate (kon) was determined as 740000 M⁻¹ s⁻¹.
Regarding B3, the Kd turned out to be 1.3 nM, the koff was found to be 0.001 s⁻¹ and the kon worked out at 800000 M⁻¹ s⁻¹.
In the case of B4, the Kd stood at 0.046 nM, the koff came to 8e-05 s⁻¹ and the kon was 1.7e+06 M⁻¹ s⁻¹.
The corresponding values for B5 are 0.75 nM, 0.00124 s⁻¹ and 1.6e+06 M⁻¹ s⁻¹.

The next assay has the same target. Description: competition ELISA on coated human IL-12, competitor of 0.8 µg/ml biotinylated 8E1, Expt. 1. How it is done:
(§1) MaxiSorp ELISA plates (Nalge Nunc International) were coated overnight at 4° C. with 100 μl/well of 1.0 μg/ml human IL-12 in 0.2 M sodium carbonate-bicarbonate buffer, pH 9.4, washed with Wash Buffer (PBS containing 0.1% Tween 20), and blocked for 1 hr at room temperature with 300 μl/well of SuperBlock Blocking Buffer in TBS (Pierce Chemical Company). […] As isotype controls, 100 μl/well of 100 μg/ml mouse IgG 1/κ (MuFd79) or humanized IgG1/κ (HuFd79) monoclonal antibodies in ELISA buffer was used. As a no-competitor control, 100 μl/well of ELISA Buffer was used. After incubating the plates for 1 hr at room temperature, and washing with Wash Buffer, bound antibodies were detected using 100 μl/well of 1 μg/ml HRP-conjugated streptavidin (Pierce Chemical Company) in ELISA buffer. After incubating for 1 hr at room temperature, and washing with Wash Buffer, color development was performed by adding 100 μl/well of ABTS Peroxidase Substrate/Peroxidase Solution B (KPL, Inc.). After incubating for 5 min at room temperature, color development was stopped by adding 50 μl/well of 2% oxalic acid. Absorbance was read at 415 nm.
(§2) The affinity of 8E1.4, 8E1.5 and 8E1.6 to human IL-12 was analyzed by competition ELISA as described above.
B4: the IC50 was 2.25 µg/mL.

A further assay shares this target. Description: competition ELISA on coated human IL-12, competitor of 0.8 µg/ml biotinylated 8E1, average. On the procedure: as §1, §2
With B4, the IC50 turned out to be 2.1 µg/mL.

The target is the same in another assay. Description: competition ELISA on coated human IL-12, competitor of 0.8 µg/ml biotinylated 8E1, Expt. 2. On the procedure: MaxiSorp ELISA plates (Nalge Nunc International) were coated overnight at 4° C. with 100 μl/well of 1.0 μg/ml human IL-12 in 0.2 M sodium carbonate-bicarbonate buffer, pH 9.4, washed with Wash Buffer (PBS containing 0.1% Tween 20), and blocked for 1 hr at room temperature with 300 μl/well of SuperBlock Blocking Buffer in TBS (Pierce Chemical Company). After washing with Wash Buffer, a mixture of biotinylated 8E 1 ([…] final concentration) and competitor antibody (8E1 or 8E1.4 or 8E1.5 or 8E1.6) starting at 100 μg/ml final concentration and serially diluted 3-fold) in 100 μl/well of ELISA buffer was added in duplicate. As isotype controls, 100 μl/well of 100 μg/ml mouse IgG 1/κ (MuFd79) or humanized IgG1/κ (HuFd79) monoclonal antibodies in ELISA buffer was used. As a no-competitor control, 100 μl/well of ELISA Buffer was used. After incubating the plates for 1 hr at room temperature, and washing with Wash Buffer, bound antibodies were detected using 100 μl/well of 1 μg/ml HRP-conjugated streptavidin (Pierce Chemical Company) in ELISA buffer. After incubating for 1 hr at room temperature, and washing with Wash Buffer, color development was performed by adding 100 μl/well of ABTS Peroxidase Substrate/Peroxidase Solution B (KPL, Inc.). […] Absorbance was read at 415 nm.
as §2
Background: An ELISA detects its analyte on a solid surface through an enzyme-linked reagent.
As for B4, the IC50 is 2.43 µg/mL.

For a further assay the target is unchanged. As to the kind of experiment: cell-based or functional assay.
Turning to B1, the “Av. IC50 (nM) huIL-12, PHA blast assay” value is 0.15 nM.
Regarding B2, the “Av. IC50 (nM) huIL-12, PHA blast assay” value is 0.088 nM.
As to B3, the “Av. IC50 (nM) huIL-12, PHA blast assay” value worked out at 12 nM.
Same read-out and setting: then B5, with 8 nM.

The next assay shares this target. As to the kind of experiment: competition ELISA on coated human IL-12, competitor of 0.8 µg/ml biotinylated 8E1, Expt. 3. How it is done:
as §1, §2
For the molecule B3, the IC50 stood at 8.33 µg/mL.
Same read-out and setting: then B4, with 1.61 µg/mL; and B5, with 13.4 µg/mL.
